The text below walks through data of publication PMC3627599.

Series [1] has as its target T1, MAZ (Homo sapiens (pGEX-hMAZ), UniProt P56270 1-477).
T1 sequence: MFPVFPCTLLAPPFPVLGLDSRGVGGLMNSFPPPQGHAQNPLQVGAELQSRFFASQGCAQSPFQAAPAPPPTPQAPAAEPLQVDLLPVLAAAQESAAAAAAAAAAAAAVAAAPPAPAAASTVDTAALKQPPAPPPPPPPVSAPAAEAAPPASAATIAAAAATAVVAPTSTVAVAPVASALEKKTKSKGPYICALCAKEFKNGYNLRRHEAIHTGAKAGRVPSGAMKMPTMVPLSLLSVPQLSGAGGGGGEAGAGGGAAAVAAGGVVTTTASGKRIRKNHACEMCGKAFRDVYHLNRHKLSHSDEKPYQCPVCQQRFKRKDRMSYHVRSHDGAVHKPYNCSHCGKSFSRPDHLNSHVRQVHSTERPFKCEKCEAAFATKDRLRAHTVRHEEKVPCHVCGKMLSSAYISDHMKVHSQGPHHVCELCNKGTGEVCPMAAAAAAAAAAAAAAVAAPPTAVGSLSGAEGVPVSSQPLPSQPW
The experiment in a line: double-filter binding.

The target in series [2] is T1, MAZ. The experiment in a line: competition.

Broadly, the Kd is the concentration at which binding is half-saturated. A higher Kd goes with a looser complex. Take GCGGTGTGGGAAGAGGGAAGAGGGGGAGGCAG (structured_DNA) [32R-3n]: the Kd with MAZ [1] was 320 ± 2 nM.
As to GCGGTGTGGGAAGAGGGAAGAGGGGGAGGCAG (XNA, AMANY inserted after G10 and after A21; 2 LNA at 3' end) [3044], in the series with MAZ [2], the binding result is “binds”.
